Test results: publication PMC2270906, “The CD81 Partner EWI-2wint Inhibits Hepatitis C Virus Entry” (PLoS ONE, 2008)

T1: CD81 (endogenous, human cells) (human (endogenous in Daudi, Ramos, …, UniProt P60033 1-236))
T1 sequence: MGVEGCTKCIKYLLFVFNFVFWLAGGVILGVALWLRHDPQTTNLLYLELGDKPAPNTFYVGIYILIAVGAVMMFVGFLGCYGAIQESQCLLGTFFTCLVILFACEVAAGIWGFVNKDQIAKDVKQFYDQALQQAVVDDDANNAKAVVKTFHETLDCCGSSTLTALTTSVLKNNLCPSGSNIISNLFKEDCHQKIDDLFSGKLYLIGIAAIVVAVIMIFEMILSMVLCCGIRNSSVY

B1: CD81 (endogenous, human cells) (natural protein)
chain: T1 sequence
B2: EWI-2wint with the C-terminal FLAG epitope, produced by furin cleavage of EWI-2FLAG^fur in Huh-7 cells (domain or fragment)
chain: QAPTSPPRMTVHEGQELALGCLARTSTQKHTHLAVSFGRSVPEAPVGRSTLQEVVGIRSDLAVEAGAPYAERLAAGELRLGKEGTDRYRMVVGGAQAGDAGTYHCTAAEWIQDPDGSWAQIAEKRAVLAHVDVQTLSSQLAVTVGPGERRIGPGEPLELLCNVSGALPPAGRHAAYSVGWEMAPAGAPGPGRLVAQLDTEGVGSLGPGYEGRHIAMEKVASRTYRLRLEAARPGDAGTYRCLAKAYVRGSGTRLREAASARSRPLPVHVREEGVVLEAVAWLAGGTVYRGETASLLCNISVRGGPPGLRLAASWWVERPEDGELSSVPAQLVGGVGQDGVAELGVRPGGGPVSVELVGPRSHRLRLHSLGPEDEGVYHCAPSAWVQHADYSWYQAGSARSGPVTVYPYMHALDTLFVPLLVGTGVALVTGATVLGTITCCFMKRLRKR

How the values were obtained:
[1] = biological target: HCV E1E2 heterodimers (expressed from recombinant adenovirus Ad/E1E2p7NS2) (hepatitis C virus); assay: pull-down; E1E2 on mAb H53 beads; Huh-7/pcDNA3.1 cells lysed in Bj/EDTA, ratio of the CD81 band to that in TX/EDTA
[2] = biological target: HCV E1E2 heterodimers (expressed from recombinant adenovirus Ad/E1E2p7NS2) (hepatitis C virus); assay: pull-down; E1E2 on mAb H53 beads; Huh-7/EWI-2FLAG^fur cells lysed in Bj/EDTA, ratio of the CD81 band to that in TX/EDTA
[3] = biological target: T1, CD81 (endogenous, human cells); assay: cell-based or functional assay

| Binder | ratio [CD81 band intensity in E1E2 IP in Bj/EDTA buffer]/[CD81 band intensity in E1E2 IP in TX/EDTA buffer] [1] | ratio [CD81 band intensity in E1E2 IP in Bj/EDTA buffer]/[CD81 band intensity in E1E2 IP in TX/EDTA buffer] [2] | inhibition of the infectivity of HCVcc expressing Renilla luciferase on Huh-7 cells expressing EWI-2FLAG^fur (clone A6), relative to Huh-7 cells; the pair that is blocked: HCV glycoproteins with CD81 [3] |
| --- | --- | --- | --- |
| B1 | 0.84 | 0.27 | – |
| B2 | – | – | 80% |
